Data as given in patent publication US20200261490.

What was measured:
[1] = biological target: recombinant human stanniocalcin 1, C-terminally myc-his-tagged
[2] = biological target: recombinant human stanniocalcin 2, C-terminally myc-his-tagged
[3] = biological target: STC2(C120A), human stanniocalcin 2 with cysteine 120 replaced by alanine, C-terminally myc-his-tagged
[4] = biological target: untagged human STC2 (transgene-derived STC2 of transgenic mice; endogenous STC2 of 293T cells)

B1: human PAPP-A2 (pappalysin-2) (protein)
chain: PPEESNQNGGEGSYREAETFNSQVGLPILYFSGRRERLLLRPEVLAEIPREAFTVEAWVKPEGGQNNPAIIAGVFDNCSHTVSDKGWALGIRSGKDKGKRDARFFFSLCTDRVKKATILISHSRYQPGTWTHVAATYDGRHMALYVDGTQVASSLDQSGPLNSPFMASCRSLLLGGDSSEDGHYFRGHLGTLVFWSTALPQSHFQHSSQHSSGEEEATDLVLTASFEPVNTEWVPFRDEKYPRLEVLQGFEPEPEILSPLQPPLCGQTVCDNVELISQYNGYWPLRGEKVIRYQVVNICDDEGLNPIVSEEQIRLQHEALNEAFSRYNISWQLSVHQVHNSTLRHRVVLVNCEPSKIGNDHCDPECEHPLTGYDGGDCRLQGRCYSWNRRDGLCHVECNNMLNDFDDGDCCDPQVADVRKTCFDPDSPKRAYMSVKELKEALQLNSTHFLNIYFASSVREDLAGAATWPWDKDAVTHLGGIVLSPAYYGMPGHTDTMIHEVGHVLGLYHVFKGVSERESCNDPCKETVPSMETGDLCADTAPTPKSELCREPEPTSDTCGFTRFPGAPFTNYMSYTDDNCTDNFTPNQVARMHCYLDLVYQQWTESRKPTPIPIPPMVIGQTNKSLTIHWLPPISGVVYDRASGSLCGACTEDGTFRQYVHTASSRRVCDSSGYWTPEEAVGPPDVDQPCEPSLQAWSPEVHLYHMNMTVPCPTEGCSLELLFQHPVQADTLTLWVTSFFMESSQVLFDTEILLENKESVHLGPLDTFCDIPLTIKLHVDGKVSGVKVYTFDERIEIDAALLTSQPHSPLCSGCRPVRYQVLRDPPFASGLPVVVTHSHRKFTDVEVTPGQMYQYQVLAEAGGELGEASPPLNHIHGAPYCGDGKVSERLGEECDDGDLVSGDGCSKVCELEEGFNCVGEPSLCYMYEGDGICEPFERKTSIVDCGIYTPKGYLDQWATRAYSSHEDKKKCPVSLVTGEPHSLICTSYHPDLPNHRPLTGWFPCVASENETQDDRSEQPEGSLKKEDEVWLKVCFNRPGEARAIFIFLTTDGLVPGEHQQPTVTLYLTDVRGSNHSLGTYGLSCQHNPLIINVTHHQNVLFHHTTSVLLNFSSPRVGISAVALRTSSRIGLSAPSNCISEDEGQNHQGQSCIHRPCGKQDSCPSLLLDHADVVNCTSIGPGLMKCAITCQRGFALQASSGQYIRPMQKEILLTCSSGHWDQNVSCLPVDCGVPDPSLVNYANFSCSEGTKFLKRCSISCVPPAKLQGLSPWLTCLEDGLWSLPEVYCKLECDAPPIILNANLLLPHCLQDNHDVGTICKYECKPGYYVAESAEGKVRNKLLKIQCLEGGIWEQGSCIPVVCEPPPPVFEGMYECTNGFSLDSQCVLNCNQEREKLPILCTKEGLWTQEFKLCENLQGECPPPPSELNSVEYKCEQGYGIGAVCSPLCVIPPSDPVMLPENITADTLEHWMEPVKVQSIVCTGRRQWHPDPVLVHCIQSCEPFQADGWCDTINNRAYCHYDGGDCCSSTLSSKKVIPFAADCDLDECTCRDPKAEENQ
For B1, the “cleavage of 125I-IGFBP-5 by PAPP-A2” value [1] was “both STCs were able to partially inhibit PAPP-A2 (pappalysin-2)” and the “cleavage of 125I-IGFBP-5 by PAPP-A2” value [2] was “both STCs were able to partially inhibit PAPP-A2 (pappalysin-2)”.

B2: murine PAPP-A2 (protein)
chain: QNGGGASLRRVETFNSQGGLPVLYFTGKRERLLLRPEVLAEIPREAFTVEAWVRPEGGQSNPAIIAGVFDNCSHTVNDKGWALGIRSGKDKGWRDARFFFSLRTDRMKKATIVTGHSRYQPGMWTHVAATYDGQHTALYVDGTRVASSRDQFGPLNSPFMASCRSLILGGDSSEDGHYFRGYLGTLVIWSTALSQTHLQHSPLHPSAADELTTLILTATFDPLMEQWAPFRDDLYPRLEVLQDSESQPEILSPLQPPPCGQTACDNVELISQYNKHGPLRREKVIRYQVVNIYDDEGLHPIVSDHQIRRQHEALNQAFSRYNISWQLSVHRVHNSTLRHRVVLVNCEPSKIGNDHCDPECEHPLTGFDGGDCRLQGRCYSWNRRDGLCHVECNNMLNDFDDGDCCDPEVTDVRKTCFDPDSPKRAYMSVKELKEALQLNSTHFLNVYFASSVREDLAGSATWPWDKEALSHLGGVVLNPTYYGMLGHTNIMIHEVGHVLGLYHVFKGVSERESCDDPCRETVPSMETGDLCADTAPTPKSKLCRDPEPANDTCGFTLFPGAPFNNYMSYTDDECTDNFTPNQVARMHCYLDLVYQQWSESQKPTPIPIPPMVIGQTHKSLTIHWLPPISGVVYDRAPDSMCSACTEDGTFRQYVYKASSGRVCDSSGYWTPEEAVGPPDVDQPCEPSLQAWSPELHLNHMNMTVPCPAEGCSLELLFQYPVQADTLTLWVTYLSMNSSKAFFDIEILLEHKKSMHLGPLNTFCDIPLTIKLHMDEKVMGAKVYTFDERMEIDAALLTSRPNSSLCSGCKPMSYQVLREPPFSSGLPMVVTHPHRKFTDTEVIPGQMYQYQVQAEAVGELGEASPPLSHIHGGPYCGDGKVERSIGEMCDDGDLLNGDGCSRACELEEGFNCAGEPSLCYRYEGDGVCEDFEKESIITDCGLHTPEGYLDQWASQAYSYHEDKEKCPVSLVTGEPHSMICTSWHPDSSPYHSFPGWFPCVFSLKKDQDAGSEQAKDSLQKDNEIWLEVCFNRPGVAVAIYIFLASDGVTPGEHQQATVTLYLIDVSGSNHSLGTYGLSCQQNPLVINVSHHVNVYPQHTSSMLLNFSSPLVGISAVALRTSSQTSSSAPSNCIPEQNYEGKSCAQRPCGEQGRCAPLLLDHTDMVNCTSSSPGHMECAITCQRGYVLQTSSGQYLRNMQKEILLTCSSGHWDKDVICKRLDCGVPDSSLVNYANFSCLEGTDFLKQCSISCVPPAKLQGLNPWLTCLEDGLWSLPEVYCKLECEAPPVIPNANLLLPHFLEGNHDVGTICKYECKPGYYVKETSGSQGKNKFLKIQCLDDGSWEQGSCVPVVCEPPPPVFEGMYECTDGFKLDSQCVLNCNQETEGIPILCTKEGLWTQEFKLCENLQGECPPPTSELNSVEYKCGQGYGIGAVCSPSCVIPPSDPVILPENVTTDTLEHWMEPVKVQSIVCTGRRQWHPDPSLVHCIQSCEPFQADGWCDTINNRAYCNYDGGDCCSSTLSSKKVIPFAADCDLDECTCRDPKAEENQ
For B2, the “proteolytic activity of murine PAPP-A2 towards radiolabeled IGFBP-5” value [1] was “Murine PAPP-A and PAPP-A2 are inhibited by STC1 and STC2, but not STC2(C120A)”, the “proteolytic activity of murine PAPP-A2 towards radiolabeled IGFBP-5” value [3] was “Murine PAPP-A and PAPP-A2 are inhibited by STC1 and STC2, but not STC2(C120A)” and the “proteolytic activity of murine PAPP-A2 towards radiolabeled IGFBP-5” value [2] was “Murine PAPP-A and PAPP-A2 are inhibited by STC1 and STC2, but not STC2(C120A)”.

B3: murine PAPP-A (protein)
chain: RGAEEPSPPSRALYFSGRGEQLRLRADLELPRDAFTLQVWLRAEGGQKSPAVITGLYDKCSYTSRDRGWVMGIHTTSDQGNRDPRYFFSLKTDRARKVTTIDAHRSYLPGQWVHLAATYDGRLMKLYMNGAQVATSAEQVGGIFSPLTQKCKVLMLGGSALNHNFRGHIEHFSLWKVARTQREIVSDMETRGLHTPLPQLLLQENWDNVKRTWSPMKDGNSPQVEFSNAHGFLLDTNLEPPLCGQTLCDNTEVISSYNQLPSFRQPKVVRYRVVNIYDDHHENPTVSWQQIDFQHQQLAEAFQHYNISWELEVLNINSSSLRHRLILANCDISKIGDEKCDPECNHTLTGHDGGDCRQLRYPAFMKKQQNGVCDMDCNYERFNFDGGECCDPDITDVTKTCFDPDSPHRAYLDVNELKNILRLDGSTHLNIFFANSSEEELAGVATWPWDKEALMHLGGIVLNPSFYGIPGHTHTMIHEIGHSLGLYHIFRGISEIQSCSDPCMETEPSFETGDLCNDTNPAPKHKFCGDPGPGNDTCGFHGFFNTPYNNFMSYADDDCTDSFTPNQVSRMHCYLDLVYQSWQPSRKPAPVALAPQVVGHTMDSVMLEWFPPIDGHFFERELGSACDLCLEGRILVQYAFNASSPMPCGPSGHWSPREAEGHPDVEQPCKSSVRTWSPNSAVNPHTVPPACPEPQGCYLELEFRYPLVPESLTIWVTFVSSDWDSSGAVNDIKLLTISGKNISLGPQNVFCDIPLTIRLRDVGEEVYGIQIYTLDEHLEIDAAMLTSTVDSPLCLQCKPLQYKVLRDPPLLEDVASLLHLNRRFMDTDLKLGSVYQYRIITISGNEESEPSPAAIYTHGSGYCGDGVIQKDQGEECDDMNKVNGDGCSLFCKQEVSFNCIDEPSRCYFHDGDGMCEEFEQKTSIKDCGVYTPQGFLDQWASNASVSHQDQQCPGWVVIGQPAASQVCRTKVIDLSEGISQHAWYPCTITYPYYHLPQTTFWLQTYFSQPMVAAAVIIHLVTDGTYYGDQKQETISVQLLDTKDQSHDLGLHVLSCRNNPLIIPVVHDLSQPFYHSQAVHVSFSSPLVAISGVALRSFDNFDPVTLSSCQRGETYSPAEQSCVHFACQAADCPELAVGNASLNCSSNHHYHGAQCTVSCQTGYVLQIQRDDELIKSQVGPSITVTCTEGKWNKQVACEPVDCGIPDHHHVYAASFSCPEGTTFGRRCSFQCRHPAQLKGNNSFLTCMEDGLWSFPEALCELMCLAPPPVPNADLQTARCRENKHKVGSFCKYKCKPGYHVPGSSRKSKKRAFKTQCTQDGSWQEGTCVPVTCDPPPPKFHGLYQCTNGFQFNSECRIKCEDSDASQGRGSNIIHCRKDGTWSGSFHVCREMQGQCSAPNQLNSNLKLQCPDGYAIGSECAISCLDHNSESIILPVNLTVRDIPHWMNPTRVQRIVCTAGLQWYPHPALIHCVKGCEPFMGDNYCDAINNRAFCNYDGGDCCTSTVKTKKVTPFPMSCDLQNDCACRDPEAQEHNRKDLRGYSHG
For B3, the “proteolytic activity of murine PAPP-A towards radiolabeled IGFBP-4” value [1] was “Murine PAPP-A and PAPP-A2 are inhibited by STC1 and STC2, but not STC2(C120A)”, the “proteolytic activity of murine PAPP-A towards radiolabeled IGFBP-4” value [3] was “Murine PAPP-A and PAPP-A2 are inhibited by STC1 and STC2, but not STC2(C120A)” and the “proteolytic activity towards IGFBP-4 in conditioned media of STC2 transgenic mouse embryonic fibroblasts” value [4] was “conditioned media from MEFs derived from STC2 transgenic mice showed a marked reduction in PAPP-A activity”. The “proteolytic activity of murine PAPP-A towards radiolabeled IGFBP-4” value [2] was “Murine PAPP-A and PAPP-A2 are inhibited by STC1 and STC2, but not STC2(C120A)”.
